The results in this text go back to publication PMC11542851 (PLOS Pathogens, 2024).

Numbering of substitutions follows the chain as printed. Like-named read-outs stand apart in the source and are kept apart here.

Assay [1] addresses RsSHC014 RBD, yeast-displayed (Bat SARS-like coronavirus RsSHC014, UniProt U5WLK5). The assay can be described thus: flow cytometry on cells. Conditions: one partner purified.
The target in assay [2] is T1, SARS-CoV-2 RBD subunit (recombinant) (SARS-CoV-2 Wuhan-Hu-1, UniProt P0DTC2).
T1 construct: source: bought: Sino Biologics
Description: ELISA. Conditions: both partners purified.

Assay [3] concerns the target SARS-CoV-1 RBD, yeast-displayed (SARS-CoV-1, strain  (P59594 …, UniProt P59594)). Description: flow cytometry on cells. Conditions: one partner purified.
Assay [4] deals with T1, SARS-CoV-2 RBD subunit (recombinant).
Assay [5] addresses SARS-CoV-2 Omicron XBB recombinant spike protein (trimer) (SARS-CoV-2 Omicron XBB (entry: XBB.1), strain).

B1: C68.239 (antibody, V domains shown)
VH: EVQLLESGGGLVQPGGSLRLSCAASGFTFSSYAMSWVRQAPGKGLEWVSAISGGGDNTYYADSVKGRFTISRDNSKNTLYLQMNSLRAEDTAVYFCAKNPITVVPAAWDRGYFDLWGRGTLVTVSS
VL: SYELTQPPSVSVAPRKTARITCGGNNIGSYSVHWYQQRPGQAPVLVVHDDSDRPSGIPERFSGSNSGNTATLTISRVEAGDEADYYCQVWDSSSDHRGVFGGGTKLTVL
For B1, the binding result in assay [1] and in assay [2] was “binds” in each case.

B2: C68.327 (antibody, V domains shown)
VH: EVQLLESGGGLVQPGGSLRLSCAASGFTFGSYAMSWVRQAPGKGLEWVSAISGSGGSTYYADSVKGRFTISRDNSKNTLYLQMNSLRAEDTAVYNCAKDLWDGFHWFDSWGQGTLVTVSS
VL: DIQMTQSPSSVSASVGDRVTITCRASQGISSWLAWYQQKPGKAPNLLIYSASSLQSGVPSRFSGSGSGTDFTLTISSLQPEDFATYYCQQANSFPITFGQGTRLEIK
B2: in assay [2], the binding result is “binds”.

B3: C68.183 (antibody, V domains shown)
VH: EVQLLESGGGLVQPGGSLRLSCVASGFTFRNFAMSWVRQAPGKGLEWVSAISGSGDSTYYADSVKGRFTISRDNSKNTLYLQVNSLRVEDTAIYYCAKGSRGSTDYFDSWGQGTLVTVSS
VL: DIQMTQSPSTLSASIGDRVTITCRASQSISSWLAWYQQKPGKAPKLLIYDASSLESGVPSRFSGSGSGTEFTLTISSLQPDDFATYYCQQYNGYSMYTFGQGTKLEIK
Take B3: the binding result in assay [1] and in assay [2] was “binds” each time.

B4: C68.88 (antibody, V domains shown)
VH: QVQLQESGPGLVKPSETLSLTCSVSGGPISSSRYYWGWIRQSPGEGLEWIGTIYYSGSTYYNPSFKSRVTISVDTSKNQFSLKLSSVTAADTAVYYCATRCYDFWSGYYNREMLWFDCWGQGTLVTVSS
VL: NFMLTQPHSVSESPGKTVTISCTRSSGSIASNYVQWYQQRPGSSPTTVIYENNQTPSGVPDRFSGSIDSSSNSASLTISGLKTEDEADYYCQSYDSSVVVFGGGTKLTVL
Take B4: the binding result in assay [1] and in assay [2] was “binds” each time.

B5: C68.185 (antibody, V domains shown)
VH: QVQLVQSGAEVKKPGASVKVSCKTSGYAFTDHYVHWVRQAPGQGLEWMGVINPSGVGTSYAQMFQDRVTLTSDTSTSTVYMVLSSLRSEDTAVYYCVRDDYGVPARGWFDPWGQGTLVTVSS
VL: EVVLTQSPATLSLSPGERATLSCRASQSISSYLAWYQQKPGQAPRLLIYDASNRATGVPARFSGSGSGADFTLTISSLEAEDFALYYCQHRSNWLYTFGQGTKLEIK
B5: the binding result in assay [3] and in assay [2] was “binds” throughout. Moreover, the “fold lower binding than to SARS-CoV-1 RBD” value in assay [1] is about 10 fold.

B6: C68.348 (antibody, V domains shown)
VH: QVQLQESGPRLVKSSGTLSLTCAVSGGSISSSKWWSWVRQPPGKGLEWIGEVYHGGSTNYNPSLKSRVTISVDKAKNQFSLKLSSVTAADSAVYYCASLDSAAVFDYWGQGTLVTVSS
VL: QSALTQPASVSGSPGQSITISCTGTSSDVGRFNYVSWYQQHPGKAPKLLIYDVSNRPSGVSNRFSGSKSGNTASLTISGLQAEDEADYYCNSYTSSSTLYVFGTGTKVTVL
For the molecule B6, in assay [2], the binding result was “binds”.

B7: C68.61 (antibody, V domains shown)
VH: EVQLVQSGAEVKKPGESLKISCKGSAYIFTRYWIGWVRQMPGKGLEWMGIIYPGDSDTRYSPSFQGQVTISADKSISTAYLQWSSLKASDTAMYYCARSGTTNYFDYWGQGTLVTVSS
VL: DIQLTQSPSTLSASVGDRVTITCRASQSISSWLAWYQQKPGKAPKLLIYDASSLDSGVPSRFSGSGSGTDFTLTISSLQPDDFATYYCQQFNSYWTFGQGTKVEIK
Consider B7, for which the binding result in assay [1] is listed as “binds”.

B8: C68.203 (antibody, V domains shown)
VH: EVQLLESGGGLVQPGGSLRLSCTASGFTFSRYALTWVRQAPGKGLECVSAFSGSGDSTYYADSVKGRFTISRDNSKNTLYLQMNSLRAEDTAVYYCAKSPRYNSDYFDFWGQGTLVTVSS
VL: B7 VL with D55E, D70E, F91Y, Y94F, W95I, K102R, V103L
On to B8, for which the binding result in assay [2] is listed as “binds”.

B9: C68.200 (antibody, V domains shown)
VH: B8 VH with C47W, F51I, D56G, S57N, Y59N, S104N
VL: B7 VL with D55E, D70E, F91Y, S93T, Y94F, W95I, Q99H, K102R, V103L
On to B9, for which the binding result in assay [2] was “binds”.

B10: C68.201 (antibody, V domains shown)
VH: EVQLVQSGAEVKKPGESLKISCTGSGYSFAYYWIGWVRQMPGKGLEWMGNIYPGDSDTRYSPSFQGQITISSDKSISTAYLQWSSLKASDTAMYYCATRYSGTHYVGIDAFEIWGQGTMVTVSS
VL: not shown
In the case of B10, the binding result in assay [4] and in assay [5] was “binds” each time.
